Assay results reported in paper PMC3335792, “M. tuberculosis Sliding β-Clamp Does Not Interact Directly with the NAD^+ -Dependent DNA Ligase” (PLoS ONE, 2012).

B1: M. tuberculosis sliding β-clamp (Mtbβ-clamp, Rv0002) (natural protein)
chain: MDAATTRVGLTDLTFRLLRESFADAVSWVAKNLPARPAVPVLSGVLLTGSDNGLTISGFDYEVSAEAQVGAEIVSPGSVLVSGRLLSDITRALPNKPVDVHVEGNRVALTCGNARFSLPTMPVEDYPTLPTLPEETGLLPAELFAEAISQVAIAAGRDDTLPMLTGIRVEILGETVVLAATDRFRLAVRELKWSASSPDIEAAVLVPAKTLAEAAKAGIGGSDVRLSLGTGPGVGKDGLLGISGNGKRSTTRLLDAEFPKFRQLLPTEHTAVATMDVAELIEAIKLVALVADRGAQVRMEFADGSVRLSAGADDVGRAEEDLVVDYAGEPLTIAFNPTYLTDGLSSLRSERVSFGFTTAGKPALLRPVSGDDRPVAGLNGNGPFPAVSTDYVYLLMPVRLPG
notes: also called beta clamp; Native Mtbβ-Clamp
B2: γ-subunit of the DNA clamp loader complex of M. tuberculosis (Rv3721c) (natural protein)
chain: MALYRKYRPASFAEVVGQEHVTAPLSVALDAGRINHAYLFSGPRGCGKTSSARILARSLNCAQGPTANPCGVCESCVSLAPNAPGSIDVVELDAASHGGVDDTRELRDRAFYAPVQSRYRVFIVDEAHMVTTAGFNALLKIVEEPPEHLIFIFATTEPEKVLPTIRSRTHHYPFRLLPPRTMRALLARICEQEGVVVDDAVYPLVIRAGGGSPRDTLSVLDQLLAGAADTHVTYTRALGLLGVTDVALIDDAVDALAACDAAALFGAIESVIDGGHDPRRFATDLLERFRDLIVLQSVPDAASRGVVDAPEDALDRMREQAARIGRATLTRYAEVVQAGLGEMRGATAPRLLLEVVCARLLLPSASDAESALLQRVERIETRLDMSIPAPQAVPRPSAAA
notes: γ-subunit of the DNA clamp loader (DNA polymerase III subunit gamma/tau) of M. tuberculosis, Rv3721c; also called γ-clamp loader; Mtb-γ-subunit

Legend:
[1] = molecular target: the molecule itself; assay: crystal structure; Mtbβ-Clamp, hanging drop, 9% isopropanol, 12% PEG4K, 0.1 M Na HEPES pH 7.0, 295 K; space group C222_(1); two chains in the asymmetric unit
[2] = molecular target: T1, Mtbβ-clamp labeled with OregonGreen488 maleimide (Mtbβ-clamp^OG) (M. tuberculosis, UniProt P9WNU1 1-402, OregonGreen488 maleimide label (residue not stated)); assay: other fluorescence titration; OregonGreen488-labeled β-clamp (50 or 100 nM in the methods, 90 nM in the legend) titrated with the partner protein; 20 mM Tris-Cl pH 7.5, 8 mM MgCl2, 1 mM DTT, 0.2 mM EDTA, 50 mM NaCl, 0.5 mM ATP, 22°C; emission at 510 nm; apparent Kd; conditions: both partners purified
T1 construct: also called Mtbβ^OG-Clamp
T1 sequence: B1 chain

Binder	binding result [1]	Kd [2]
B1	binds	–
B2	–	23.8 nM
